# Data taken from publication PMC4174438.
# Target: RtcA (RNA 3'-phosphate cyclase) (Pyrococcus horikoshii, UniProt O59198 1-341)
# Assay: EMSA
# RtcA (RNA 3'-phosphate cyclase), sequence (O59198 whole entry): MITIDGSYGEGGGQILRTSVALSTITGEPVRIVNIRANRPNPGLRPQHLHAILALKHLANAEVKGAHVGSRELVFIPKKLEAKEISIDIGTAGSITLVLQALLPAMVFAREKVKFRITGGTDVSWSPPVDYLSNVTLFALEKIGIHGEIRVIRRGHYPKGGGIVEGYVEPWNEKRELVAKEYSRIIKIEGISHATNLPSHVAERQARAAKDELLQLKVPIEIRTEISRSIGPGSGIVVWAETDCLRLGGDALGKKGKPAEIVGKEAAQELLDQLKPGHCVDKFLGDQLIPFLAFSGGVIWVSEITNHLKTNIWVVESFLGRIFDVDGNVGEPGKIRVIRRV
binder,measurement,value
"CGUUUU (ssRNA, 3'-phosphate) [U6 6-mer RNA 3'-p]",binding result,binds
